This experiment deals with 11th type II cohesin module of the primary scaffoldin ScaA1 of B. cellulosolvens (BcCohScaA1_(11)) (Bacteroides (Pseudobacteroides) cellulosolvens) (UniProt Q9FDJ9). The experiment in a line: ITC; 308 K; Doc constructs in the cell titrated with 28 injections of 10 μl BcCohScaA1_(11); single-site model.
UniProt Q9FDJ9, sequence (Q9FDJ9 entry or part of it): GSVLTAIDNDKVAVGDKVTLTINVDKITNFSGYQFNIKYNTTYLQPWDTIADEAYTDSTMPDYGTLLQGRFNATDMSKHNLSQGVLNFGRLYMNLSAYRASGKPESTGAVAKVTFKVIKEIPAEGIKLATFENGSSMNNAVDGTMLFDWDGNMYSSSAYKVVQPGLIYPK
Consider “TrxA-BcDocCel48 mutant M1 (M17S/A18D) (domain or fragment)”, for which the Ka was 1.11e+07 M⁻¹, the dH was -16 kcal/mol and the stoichiometry N amounted to 0.98.

For “TrxA-BcDocCel48 mutant M1 + F60A (domain or fragment)”, the Ka was 58400 M⁻¹, the dH was -60.9 kcal/mol and the stoichiometry N turned out to be 1.01.

On to “TrxA-BcDocCel48 mutant M2 (M50S/A51D) (domain or fragment)”, for which the Ka is 1.41e+06 M⁻¹, the dH is -17.7 kcal/mol and the stoichiometry N was 0.99.

On to “TrxA-BcDocCel48 mutant M2 + F27A (domain or fragment)”, for which the Ka turned out to be 445000 M⁻¹, the dH is -13.2 kcal/mol and the stoichiometry N came out at 1.01.

Turning to “TrxA-BcDocCel48 mutant M21A/I54A (domain or fragment)”, the Ka turned out to be 1.2e+06 M⁻¹, the dH is -9.3 kcal/mol and the stoichiometry N came out at 1.

Turning to “TrxA-BcDocCel48 mutant N16A/N49A (domain or fragment)”, the Ka was 136000 M⁻¹, the dH is -14.1 kcal/mol and the stoichiometry N is 0.99.

On to “TrxA-BcDocCel48 mutant Q25A/Q58A (domain or fragment)”, for which the Ka was 1.35e+06 M⁻¹, the dH is -8.86 kcal/mol and the stoichiometry N was 0.99.

The substance “Wild-type BcDocCel48 fused to TrxA (TrxA-BcDocCel48) (domain or fragment)” returned a Ka of 3.31e+07 M⁻¹, a dH of -15.2 kcal/mol and a stoichiometry N of 0.98.
